Measurements reported in EP4755915A1 (Medytox Inc., dated 2026).

Columns and labels:
[1] = target: AChR (A, B, D and E) expressed on recombinant 293T cells; assay: cell-based or functional assay
[2] = target: T1, fetal acetylcholine receptor (AChR) on the cell membrane of TE671 cells (human, UniProt P02708 21-457; P11230 24-501; Q07001 22-517; P07510 23-517); assay: flow cytometry competition on TE671 cells expressing fetal AChR; competitor biotinylated mAb637 at 8 µg/ml, detected with labelled streptavidin
T1 construct: whole, on cells; The subunit make-up (alpha2, beta, gamma, delta) is general knowledge of the fetal receptor; also called autoantigen AChR
T1 sequence (P02708 21-457, chain 1 of 4): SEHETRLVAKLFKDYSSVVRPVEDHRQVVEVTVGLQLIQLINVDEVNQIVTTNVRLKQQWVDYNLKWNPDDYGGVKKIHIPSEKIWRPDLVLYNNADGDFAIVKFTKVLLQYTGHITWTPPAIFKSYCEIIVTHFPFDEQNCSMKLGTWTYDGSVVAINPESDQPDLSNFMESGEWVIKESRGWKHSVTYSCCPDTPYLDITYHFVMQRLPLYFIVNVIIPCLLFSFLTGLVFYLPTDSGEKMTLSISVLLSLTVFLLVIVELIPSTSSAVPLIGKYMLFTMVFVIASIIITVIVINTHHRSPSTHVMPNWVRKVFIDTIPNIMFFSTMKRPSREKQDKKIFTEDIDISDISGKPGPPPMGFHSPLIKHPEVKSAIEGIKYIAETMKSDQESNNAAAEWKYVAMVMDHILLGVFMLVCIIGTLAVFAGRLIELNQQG
T1 sequence (P11230 24-501, chain 2 of 4): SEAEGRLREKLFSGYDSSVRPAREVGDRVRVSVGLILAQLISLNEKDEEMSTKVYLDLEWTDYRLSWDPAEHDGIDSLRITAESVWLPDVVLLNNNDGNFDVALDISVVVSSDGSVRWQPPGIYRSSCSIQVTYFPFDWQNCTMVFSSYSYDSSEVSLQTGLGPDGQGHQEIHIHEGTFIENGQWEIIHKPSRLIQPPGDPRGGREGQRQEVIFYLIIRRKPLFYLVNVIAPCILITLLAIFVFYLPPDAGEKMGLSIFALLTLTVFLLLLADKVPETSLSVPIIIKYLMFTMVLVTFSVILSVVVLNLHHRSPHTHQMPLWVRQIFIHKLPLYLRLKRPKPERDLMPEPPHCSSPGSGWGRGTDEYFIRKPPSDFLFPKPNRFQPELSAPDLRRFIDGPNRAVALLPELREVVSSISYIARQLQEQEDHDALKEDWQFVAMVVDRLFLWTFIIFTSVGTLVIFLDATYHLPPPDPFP
T1 sequence (Q07001 22-517, chain 3 of 4): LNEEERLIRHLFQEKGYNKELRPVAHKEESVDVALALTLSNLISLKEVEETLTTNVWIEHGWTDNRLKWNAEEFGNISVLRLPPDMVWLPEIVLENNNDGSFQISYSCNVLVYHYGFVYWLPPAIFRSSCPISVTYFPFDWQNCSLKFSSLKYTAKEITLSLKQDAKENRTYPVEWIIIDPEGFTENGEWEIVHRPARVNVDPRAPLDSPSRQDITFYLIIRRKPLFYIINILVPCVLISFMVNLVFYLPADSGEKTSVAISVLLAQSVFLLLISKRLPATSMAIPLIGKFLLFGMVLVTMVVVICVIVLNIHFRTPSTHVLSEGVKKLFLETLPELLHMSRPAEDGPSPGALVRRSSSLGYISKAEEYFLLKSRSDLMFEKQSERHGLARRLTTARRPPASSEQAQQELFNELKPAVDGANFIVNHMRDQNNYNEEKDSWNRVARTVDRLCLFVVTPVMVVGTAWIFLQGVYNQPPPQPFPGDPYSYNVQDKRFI
T1 sequence (P07510 23-517, chain 4 of 4): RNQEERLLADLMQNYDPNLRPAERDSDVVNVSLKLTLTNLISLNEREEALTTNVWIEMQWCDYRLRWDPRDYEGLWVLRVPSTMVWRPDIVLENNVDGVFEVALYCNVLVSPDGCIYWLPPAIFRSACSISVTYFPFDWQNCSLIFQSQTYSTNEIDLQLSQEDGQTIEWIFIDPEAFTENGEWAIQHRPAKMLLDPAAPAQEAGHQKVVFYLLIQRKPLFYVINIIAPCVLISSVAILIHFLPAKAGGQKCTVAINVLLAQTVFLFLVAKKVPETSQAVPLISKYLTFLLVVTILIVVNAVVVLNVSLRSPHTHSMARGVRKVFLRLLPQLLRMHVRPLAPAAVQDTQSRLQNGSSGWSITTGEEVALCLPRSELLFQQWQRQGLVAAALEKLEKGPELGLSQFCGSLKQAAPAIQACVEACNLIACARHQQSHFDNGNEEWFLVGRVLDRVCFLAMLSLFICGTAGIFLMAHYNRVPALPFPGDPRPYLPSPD

Binder | decrease of apoptosis (CDC cell death) caused by humanized mAb35, at 0.15 µg/ml [1] | decrease of the ratio of C5b-9 positive cells caused by humanized mAb35, at 0.15 µg/ml [1] | binding result [2]
mAb192 C IgG2/4 (antibody) heavy: DIQMTQSPPSLSASLGDKVTITCQASQDINKYIAWYQQKPGKAPRQLIRYTSILVLGTPSRFSGSGSGRDFSFSISNVASEDIASYYCLQYGNLYTFGAGTKLEIKRSSASTKGPSVFPLAPCSRSTSESTAALGCLVKDYFPEPVTVSWNSGALTSGVHTFPAVLQSSGLYSLSSVVTVPSSNFGTQTYTCNVDHKPSNTKVDKTVERKCCVECPPCPAPPVAGPSVFLFPPKPKDTLMISRTPEVTCVVVDVSQEDPEVQFNWYVDGVEVHNAKTKPREEQFNSTYRVVSVLTVLHQDWLNGKEYKCKVSNKGLPSSIEKTISKAKGQPREPQVYTLPPSQEEMTKNQVSLTCLVKGFYPSDIAVEWESNGQPENYKTTPPVLDSDGSFFLYSRLTVDKSRWQEGNVFSCSVMHEALHNHYTQKSLSLSLGK light: QVQLLESGPGLVQPSQTLSLTCTVSGFSLTTNGVSWVRQPPGKGLEWIAAISSGGSPYYNSALKSRLSINRDTSKSQVFLKMNSLQTEDTAIYFCTREDGWNYFDYWGPGTMVTVSSASVAAPSVFIFPPSDEQLKSGTASVVCLLNNFYPREAKVQWKVDNALQSGNSQESVTEQDSKDSTYSLSSTLTLSKADYEKHKVYACEVTHQGLSSPVTKSFNRGEC | > 37% | > 60% | 
mAb192 C IgG4 (antibody) heavy: not shown light: QVQLLESGPGLVQPSQTLSLTCTVSGFSLTTNGVSWVRQPPGKGLEWIAAISSGGSPYYNSALKSRLSINRDTSKSQVFLKMNSLQTEDTAIYFCTREDGWNYFDYWGPGTMVTVSSASVAAPSVFIFPPSDEQLKSGTASVVCLLNNFYPREAKVQWKVDNALQSGNSQESVTEQDSKDSTYSLSSTLTLSKADYEKHKVYACEVTHQGLSSPVTKSFNRGEC | > 37% | > 60% | 
mAb192 C IgG1 (antibody) heavy: not shown light: QVQLLESGPGLVQPSQTLSLTCTVSGFSLTTNGVSWVRQPPGKGLEWIAAISSGGSPYYNSALKSRLSINRDTSKSQVFLKMNSLQTEDTAIYFCTREDGWNYFDYWGPGTMVTVSSASVAAPSVFIFPPSDEQLKSGTASVVCLLNNFYPREAKVQWKVDNALQSGNSQESVTEQDSKDSTYSLSSTLTLSKADYEKHKVYACEVTHQGLSSPVTKSFNRGEC | > 37% | > 60% | 
mAb637 B (antibody, human IgG2, kappa, also called candidate antibody) heavy: NFELTQPHSVSESPGKTVTISCTRSSGSIASNYVQWYQQRPGSSPTTVIYEDNQRPSGVPDRFSGSIDSSSNSASLTISGLKTEDEADYYCQSYDSNSGGRVFGGGTKLTVLRTVAAPSVFIFPPSDEQLKSGTASVVCLLNNFYPREAKVQWKVDNALQSGNSQESVTEQDSKDSTYSLSSTLTLSKADYEKHKVYACEVTHQGLSSPVTKSFNRGECERKCCVECPPCPAPPVAGPSVFLFPPKPKDTLMISRTPEVTCVVVDVSQEDPEVQFNWYVDGVEVHNAKTKPREEQFNSTYRVVSVLTVLHQDWLNGKEYKCKVSNKGLPSSIEKTISKAKGQPREPQVYTLPPSQEEMTKNQVSLTCLVKGFYPSDIAVEWESNGQPENYKTTPPVLDSDGSFFLYSRLTVDKSRWQEGNVFSCSVMHEALHNHYTQKSLSLSLGK light: QVQLLESGGGLVKPGGSLRLSCAASGFKSTDYYMAWVRQAPGRGLEWVSFISGRVFTNYTASVRGRFTVFREDDNTSVYLQMSRLRVEDTAVYYCARLRGIFRGPLKPLEYYFDLWGRGTLVTVSSASTKGPSVFPLAPCSRSTSESTAALGCLVKDYFPEPVTVSWNSGALTSGVHTFPAVLQSSGLYSLSSVVTVPSSNFGTQTYTCNVDHKPSNTKVDKTV |  |  | binds
